In article PMC10289234, “Construction of an alpaca immune antibody library for the selection of nanobodies against Drosophila melanogaster proteins” (Frontiers in Bioengineering and Biotechnology, 2023):
Read-outs that look alike come from different tables or passages of the source.

How the values were obtained:
[1] = target: Drosophila Myc, amino acids 1-400 (truncated Myc) (Drosophila melanogaster, strain not …, UniProt Q9W4S7)
[2] = target: T1, Drosophila CG7544, full length (Drosophila melanogaster (Fruit fly)., UniProt Q7K3B9)
T1 sequence (Q7K3B9 whole entry, the tested form may be a part): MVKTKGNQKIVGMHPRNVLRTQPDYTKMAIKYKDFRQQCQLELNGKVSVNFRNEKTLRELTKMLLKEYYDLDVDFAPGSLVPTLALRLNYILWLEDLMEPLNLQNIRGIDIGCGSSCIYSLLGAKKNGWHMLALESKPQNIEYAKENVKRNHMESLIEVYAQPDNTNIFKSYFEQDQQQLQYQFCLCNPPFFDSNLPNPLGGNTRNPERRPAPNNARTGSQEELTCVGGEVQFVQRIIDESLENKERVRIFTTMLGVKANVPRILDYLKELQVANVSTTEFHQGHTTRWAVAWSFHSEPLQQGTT

[3] = target: T2, Drosophila CyclinE, amino acids 1-361 (truncated CyclinE) (Drosophila melanogaster (Fruit fly)., UniProt P54733); test: ELISA; colonies of the third-round sublibrary tested on a 96-well plate coated with CyclinE, blocked with 3% BSA; absorbance at 405 nm twofold over negative control wells counted as positive; settings: one partner purified
T2 construct: CyclinE of Drosophila melanogaster, 709 aa, amino acids 1-361, PCR-amplified from cDNA and cloned into pET-28a-GFP-TEV; Vector pET-28a-GFP-TEV was built in the authors' laboratory; also called CycE; source: E. coli BL21 (DE3); not shown: GFP, N-terminal, cleaved
T2 sequence (P54733 1-361): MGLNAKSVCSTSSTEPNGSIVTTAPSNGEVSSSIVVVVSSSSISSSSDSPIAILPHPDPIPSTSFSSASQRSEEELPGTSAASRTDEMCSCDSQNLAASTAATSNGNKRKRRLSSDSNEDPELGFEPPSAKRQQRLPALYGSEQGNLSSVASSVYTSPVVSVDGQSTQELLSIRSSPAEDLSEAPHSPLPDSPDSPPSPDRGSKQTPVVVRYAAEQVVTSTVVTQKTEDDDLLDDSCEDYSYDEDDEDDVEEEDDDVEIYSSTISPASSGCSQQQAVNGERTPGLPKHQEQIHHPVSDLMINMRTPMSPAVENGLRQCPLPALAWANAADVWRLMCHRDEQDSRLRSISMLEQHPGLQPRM

[4] = target: T1, Drosophila CG7544, full length; test: ELISA; 96-well plate coated with 1 ug/well purified antigen, blocked with 3% BSA; 1 ug purified VHH for 2 h at RT; anti-Flag antibody, HRP anti-mouse, TMB, absorbance at 450 nm; negative controls without Flag antibody or VHH; settings: both partners purified

Chain of Drosophila Myc, amino acids 1-400 (truncated Myc) (Q9W4S7 1-400): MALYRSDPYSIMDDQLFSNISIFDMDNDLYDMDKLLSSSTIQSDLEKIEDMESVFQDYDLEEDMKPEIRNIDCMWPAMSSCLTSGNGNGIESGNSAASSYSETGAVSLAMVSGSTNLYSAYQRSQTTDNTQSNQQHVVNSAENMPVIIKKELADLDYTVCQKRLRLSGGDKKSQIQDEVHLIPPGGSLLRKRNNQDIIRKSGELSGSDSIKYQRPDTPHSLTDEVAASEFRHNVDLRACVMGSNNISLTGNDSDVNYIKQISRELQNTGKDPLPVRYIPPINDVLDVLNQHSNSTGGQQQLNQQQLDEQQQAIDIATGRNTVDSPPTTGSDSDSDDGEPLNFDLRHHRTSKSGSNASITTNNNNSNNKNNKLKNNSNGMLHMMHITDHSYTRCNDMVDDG

B1: C9 (VHH)
VHH: DVQLQESGGTLVQPGGSLRLSCKASGFPFSDYHMSWVRQAPGKRPEWLSVITTSGDWTHYADSVKGRFAISRDNAKSTLYLQMNSLKPDDTAVYYCARGHYIILGQGTQVTVSS
- binding result [1]: binds

B2: B12 (VHH)
VHH: DVQLQESGGGLVQPGGSLRLSCAASGFTFEAYTMSWVRQAPGKGLEWVSAISQGGATTAYADSVKGRFTISRDNAKSTLYLQMNNLKPEDTAVYYCAKWVFTPSVLGQGTQVTVSS
- binding result [1]: binds

B3: C4 (VHH)
VHH: DVQLQESGGGLVQPGGSLRLSCAASGFTFDSNAFGWFRQAPGKEREGVSCISARDSTTFYADAVKGRFTVSRDSAKNTVYLEMDSLKPEDTAVYYCATLYRATAQAMCAMSTLLGYWGQGTQVTVSS
- Kd [2]: 10.5 µM

B4: N1, VHH of a colony from the third-round sublibrary of CyclinE (VHH)
VHH: DVQLQESGGGLVQAGGSLRLSCAASGGTFSRYSMGWFRQAPGKEREFVSAIGWSGYSTRYADSVKGRFTISRDNAKNTVYLQMNSLKPEDTAVYYCNAIVGVFIKRQYWGQGTQVTVSS
notes: The colony ELISA follows Fang et al., 2020; source: randomly selected colony from the third-round sublibrary of CyclinE (vhh in phage display vector pADL-10b), not purified
- binding result [3]: binds

B5: C8 (VHH)
VHH: DVQLQESGGGLVQAGGSLRLSCAASGLTSSYYAIGWFRQAPGKDSEGVSCLDTTGNRINLSNSAKGRFTISRDNAKNTVYLQMNNLKPEDTAIYYCTVVLNSLCDSRWIGAFGSWGQGTQVTVSS
- binding result [2]: binds

B6: C3, nanobody against CG7544 (Flag-Nb-His) (VHH)
VHH: DVQLQESGGGLVQAGGSLRLSCAASGNTLSTYGMGWFRQAPGKEREFVALINWGGTANYEDSVKGRFTISRDNVQNTMYLQMNNLKPEDTAVYYCFLGTYWGQGTWSPSPA
notes: not shown: Flag, N-terminal, kept
- binding result [4]: binds
